Test results: the nanobody polyreactivity screen of Harvey et al. (2022)

Assay: yeast display, Sf9 membrane polyspecificity reagent, FACS + sequencing; frameworks hold sequencing errors
How it was run: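 Polyreactivity labels are assigned by the sorting gate from which each nanobody was recovered. The gates were low and high (top ~1%), set on anti-HA fluorescence for expression and streptavidin fluorescence for reagent binding. Before sorting, galactose-induced (36–48 hours) yeast display cells were stained for 1 hour at 4 °C with 10% biotinylated, detergent-solubilized Sf9 membrane reagent.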

Sequence | polyreactivity (PSR sort gate)
QDQLVESGGGLVQAGASRRLRCAASGSIFGRNTMGWYRQAPGKESELVAAISSGGRTYYADSVKGRFTISRDNAKYTVFLQMNSLKPEDTAVYYCAAALRRRRADFDYWGQGTQVTVSS | high polyreactivity
QDQLVESGGGLVQAGCSLRLSCAASGSTFRTYAMGWYRQAPGKERDLVAAIRRGGSTKYADSVKGRFTISRDNAKYTVYLQINSLIPEDTELYYCAAVTYVPRSTNGISLYDYWGQGTQVTVSS | high polyreactivity
QDQLVESGGGLVQAGGILSLICAASGITFHSNDMGWYRQAPGKERELVAAISWSDDTTYYADSVKGRFTISRDNAKNTVYLQMNSLKPEDTAVYYCAAEFFGSYGYYEYDYWGQGSQVTVSS | high polyreactivity
QDQLVESGGGLVQAGGRLRLSCAASGSIFLRNAIGWYRQAPGKERDLVAAISKSGGSTYYADSVKGRFTISRDNAKNTVYLQMNSLKPEDTAVYYCAARTTYLYGMYYWGQGTQVTVSS | low polyreactivity
QDQLVESGGGLVQAGGRLRLSCAASVRIFWVNAMGWYRQAPGKERELVAAISWTSGSTYYADSVKGRFTISRDHANNTVYLMMNSLKPEDTAVYYCNKVQSGEYDYWGQGTQVTVSS | high polyreactivity
QDQLVESGGGLVQAGGSHRLSCAASGSTFGVNDMGWYRQAPGKERELVARITGGGSTYYADSVKGRFTISRDNAKNTVYLQMNSLKPEDTAVYYCNAAFWAPQATGYYYWGQGTQVTVSS | low polyreactivity
QDQLVESGGGLVQAGGSLRISSAASGRTYKSNAMGWYRQAPGKERELVATISRGGGSTYYADSVKGRFTISRDNAKNTVYLQMNSLKPEDTAVYYCAKGSNSYLRYHYTYPYDYWGQGTQVTVSS | high polyreactivity
QDQLVESGGGLVQAGGSLRLICAASGLIFGFYAMGWYRQAPGKERELVAAINTGGITYYADSVKGRFTISRDNAKYTVYLQMNSLKPEDTAVYYCNKDSHISTAYDYWGQGTQVTVSS | low polyreactivity
QDQLVESGGGLVQAGGSLRLICAASGMGWFRQAPGKEREFVAVIRWSSGSTYYADSVKGRFTISRDNAKNTVYLQMNSLKPEDTAVYYCAAGGYPSLLHDYDYWGQGTQVTVSS | low polyreactivity
QDQLVESGGGLVQAGGSLRLICDASGSILWHYAMGWYRQAPGTEREWVAAITQRGGSTYYADSEKGRFTISRDTAKYNVYLQMNSLKPEDTAVYYFNTYPTRTYPSYYYWRQGTQVTVSS | high polyreactivity
QDQLVESGGGLVQAGGSLRLRCAASGLILANYAMGCYRPAPVKERELVAAISSSGGSKYYADSVKGRFTISRDNAKHTVYFQMNSLKPEDTAVYDCAAYPLYRRRWTGDYWGQGTQVTVSS | high polyreactivity
QDQLVESGGGLVQAGGSLRLSCAASASTFPYNPMGRYRQAPRKERELVAAITATDDSTYYADSVKGRFTISRDNAKNTVYLQMNSLKPEDTAVYYCAADFGGYVFYFGYDYWGQGTQVTVSS | low polyreactivity
QDQLVESGGGLVQAGGSLRLSCAASGFIFAYNAMGWYRQGPGKESELVAGITWNGGSTYYADSVKGRFTISRDNAKNSVYLQMNRLKPEETAVYYCAARRTWGYIYRLGYGMDYWGQGTQVTVSS | high polyreactivity
QDQLVESGGGLVQAGGSLRLSCAASGFIFDLYAMGWYRQAPGKERELVAVISYDGGSTYYADSVKGRFTISRDNAKNTVYLQMNSLKPVDTAVYYCNTYAGLVSPSDLYDYWGQGTQVTVSS | low polyreactivity
QDQLVESGGGLVQAGGSLRLSCAASGFIFDQYAMGWYRQPPGKERELVAAITSGGDTNYADSVKGRFTISRDNAKNTVYLQMNSLKPEDTAVYYCNAAARGSSFDYWGQGTQVTVSS | low polyreactivity
QDQLVESGGGLVQAGGSLRLSCAASGFIFGLNAMGWYRQAPGKERELVASISRRCGSTYYAYSVKGRFTISRDNAKNTVYLQMNSLKPEDTAVYYCASDTLGGTSLGDYWGQGIQVTVSS | high polyreactivity
QDQLVESGGGLVQAGGSLRLSCAASGFIFGTYAMGWYRQAPGKEREFVAAINWGGGRTYYADSVKGRFTISRDNAKNTVYLQMNSLKPEDTAVYYCAADFGLYYPRYGYWGQGTQVTVSS | high polyreactivity
QDQLVESGGGLVQAGGSLRLSCAASGFIFNYYGMGWYRQAPGKERELVATISRGASTNYADSVKGRFTISRDNAKNTVYLQMNSLKPEDTAVYYCAKDYGDWGQGTQVTVSS | low polyreactivity
QDQLVESGGGLVQAGGSLRLSCAASGFIFSQYAMGWYRHAPGKERELVAAISTSGGSTYYADSVKGRFTISRDNAKNTVYLQMNSLKPEDTAVYYCAAARITRGRRYDYWGQGTQVTVSS | high polyreactivity
QDQLVESGGGLVQAGGSLRLSCAASGFILNWYAMGVYRQAPGKERELVAAISWTTSDTYYADSVKGRFTISRDYAKNTVYLQMNSLKPEDTAVYYCNAKFYAYYVTFVLHYDYWGHGTQVTVSS | low polyreactivity
QDQLVESGGGLVQAGGSLRLSCAASGFTFRANAMGWYRQAPGKERELVAAISSGGRTNYADSVKGRFTISRDNAKNTVYLQMNSLKTEDTAVYYCAAAPSKWYYGYGYWGQGTQVTVSS | high polyreactivity

Sequence | polyreactivity (PSR sort gate)
QDQLVESGGGLVQAGGSLRLSCAASGFTFSRYAMGWYRQAPGKERELVAAINYSGGSTYYADSVKGRFTISRDNAKNTVYLQMNSLKPEDTAVYYCATGGTKPAYKGHYYWGQGTQVTVSS | low polyreactivity
QDQLVESGGGLVQAGGSLRLSCAASGFTFVINDMGWYRQAPGKERELVADITSGGDTYYADSVKGRFTISRDNAKNTDYLQMNSLKPEDTAVYYCAADIYPDWIYLLYGYWGQGTQVTVSS | low polyreactivity
QDQLVESGGGLVQAGGSLRLSCAASGFTFVINDMGWYRQAPGKEREMVADITSGGDTYYADSVKGRFTISRDNAKNTVDLQMNSLKPEDTAVYYCAADIYPDWIYLLYGYWGQGTQVSVSS | low polyreactivity
QDQLVESGGGLVQAGGSLRLSCAASGFTFYAYAMGWYRQAPGKERELVAAITGRGGSTYYADSVKGRFTISRDNAKNTVYLPLNSLKPEDTAVYDCNKVKKSDKFNTVSNDYWGQGTQVTVSS | high polyreactivity
QDQLVESGGGLVQAGGSLRLSCAASGFTISSYARGWYRQAPGKERELVAAISTRGGSTYYADSVKGRFTISRDNSKNTVYLQMNSLKPEDTAVSYCATGGRGGRRYEYWGQGTQVTVSS | low polyreactivity
QDQLVESGGGLVQAGGSLRLSCAASGGIFLYYSMGWYRQAPGKERELVAAISRGGGRTYYADSVKGRFTISRDNAKNTVYLHMNSLKPEDTAVYYCAVEYGTGYQWWEYYYWGQGTQVTVSS | high polyreactivity
QDQLVESGGGLVQAGGSLRLSCAASGGIFPVNALGWYRQAPVKERELVATITYDGGNTYYADSVKGRFTISRDNAKKTVYLQMNSLKREDTAVYYCAKDSLSFYGYISYIGYGYDYWGQGTQVTVSS | low polyreactivity
QDQLVESGGGLVQAGGSLRLSCAASGGTFLTYAMGWYRQAPGKERELVAAISSGGSTYYADSVKGRFTISRDNAKNTVYLQMNSLKPEDTAVYYCNADPYSRFWGPDYGYWGQGTQVTVSS | low polyreactivity
QDQLVESGGGLVQAGGSLRLSCAASGIFPYYAMGGYRQAPGTEREFVAAITRSGGSTYYADSVKGRFTISRDNAKKTVYLQMNSLKPEDTAVYYCNKRYGYTGFSPRYDYWGQGTQVTVSS | low polyreactivity
QDQLVESGGGLVQAGGSLRLSCAASGITFFVYDMGWYRQAPGTERELVAAITWSGDSTYYADSVKGRFTISRDNAKNTVYLQMNSLKPEDTAVYYCAAQFDVYYSRQPYDYNRSGYWGQGTQVTVSS | low polyreactivity
QDQLVESGGGLVQAGGSLRLSCAASGITVDGYAMGWYRQAPGKDRELVAAITTSGGRTYYADSVKGRFTISRDNAKNTVYLQMNSLKPEHTADYYCNAVRGGRYGLDYWGQGTQVTVSS | high polyreactivity
QDQLVESGGGLVQAGGSLRLSCAASGLILHKYAMGWYRQAPGKERELVASINSGANTNYADSVKGRFTISRDNAKNTLYLHLNSLKPEDTAVYYCAADWQQLSYVWRSQRRYNYWGQGTQVTVSS | low polyreactivity
QDQLVESGGGLVQAGGSLRLSCAASGLTFPEYAMGWYRQAPGKERELVAAITWSGATTYYADSVKGRFTISRDNAKNTVYLQMNSLKPEDTAVYYCAAEYTVYNTALPGYYFTYYYWGQGTQVTVSS | high polyreactivity
QDQLVESGGGLVQAGGSLRLSCAASGLTFYTYAMGWYRPAPGKERELVAAIRWRGGRTYYADSVKGRFTISRDNAKNTVYLLMNSLKPEDTAVYYCAADYSTLYKYDYWGQGTQVTVSS | low polyreactivity
QDQLVESGGGLVQAGGSLRLSCAASGNTFRYYALGGYRQAPGKERELVATITSGGRTYYADSVKGRFTISRDNAKNTVYLQMNSLKPEDTAVHYGAAVGLDYFVGEYDYWGQGTQVTVSS | low polyreactivity
QDQLVESGGGLVQAGGSLRLSCAASGNTFVSNAMGWYRQAPGKERELVAAIDSGGSTNYADSVKGRFTISRDNAKYTVYLQMNSLKPEDTAVYYCNRTSVYYYYWGQGTQVTVSS | low polyreactivity
QDQLVESGGGLVQAGGSLRLSCAASGPIFRSYAMGWYRQAPGKEMELVAAISRSGGSTYYADSVKGRFSISRDNAKNSVYLHMNSLKPEDSAVYYCAADYILLGGRRKFDSWGQGTQVTVSS | low polyreactivity
QDQLVESGGGLVQAGGSLRLSCAASGRIFAGYAMGWYRQAPGKERELVATISSGGSTYYADSVKGRFTISRDNAKNTVYLQMHSLKPEDTAVYYCAAEYGTRQYSSYYKLFNYWGQGTQVTVSS | low polyreactivity
QDQLVESGGGLVQAGGSLRLSCAASGRIFGSYAMGWYRQAPGKERELVAAISIGGRTYYADSVKGRFTISRDNAKNTVYLQMNSLKPEDTAVYYCNAPAYYWRHYVYDSGYDYWGQGTQVTVSS | low polyreactivity
QDQLVESGGGLVQAGGSLRLSCAASGRIFGYYTMGWSRPAPGKERELVAGITRRGGRTYYADSVKGRFTISRDNAKNTVYLQMNSLKPEDTGVYYCAVRSGVNFYYWGQGTQVTVSS | high polyreactivity
